Test: yeast display, Sf9 membrane polyspecificity reagent, FACS + sequencing; frameworks hold sequencing errors
Method in brief: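 Sorting gates, low and high (top ~1%), were placed on anti-HA fluorescence to track expression and on streptavidin fluorescence to track reagent binding. A clone's polyreactivity label is taken from the gate it came out of. The reagent was 10% biotinylated, detergent-solubilized Sf9 membrane, applied for 1 hour at 4 °C to galactose-induced yeast display cells.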

Row | Sequence | polyreactivity (PSR sort gate)
1 | QVQLVESGGGLVQAGGSLRLSCADSGRIFWTNAMVWYRQAPGKERELVAAISYNGASTFYADSVKGRFTISRDNAKNTVSLQMNSLKPEDTAVYYCNAYSSRYRYNYWGQGTQVTVSS | high polyreactivity
2 | QVQLVESGGGLVQAGGSLRLSCAASGSTFYYYAMGWYRQAPGKERELVAAITLRGTSTYYADSVKGRFTISRDNAKNTVYLQMNRLKPEDTAVYYCAVETYYSIFDIYDYWGQGTQVTVSS | low polyreactivity
3 | QVQLVESGGGLVQAGGSLRLSCAASGRTSVNYAMGWYREAPGKERELVASITYSDGRTYYADSVKGRFTISRDNAKNTVYLQMNSLKPEDTAVYYCAARGYSYRGWRMDYWGQGTQVTVSS | high polyreactivity
4 | QVQLVESGGGLVQAGGSLRLSCAASGGTFIRYAMALYRQAPGKERELVADITSSGDSTYYADSVKGRFTISRDNAKNTVYLPMNSLITEDTAVYYCATTHDYWLWGMGYWGQGTQVTVSS | high polyreactivity
5 | QFQLVESGVGLVQAGGSLRLSCAASGRIFTNYAMGWYRQAPGKERELVASINYSGATRNYADSVKGRFTISRDNAKNTVYLQMNSLKPEDTAVYYCNADIYPDLYGSTNYDFNYWGQGTQVTVSS | low polyreactivity
6 | QVQLVESGGGLVQAGGSLRLSCAASGRTFGGYTIGWSRQAPGKERELVAAIRWSGGRTYYADSVKGRFTISRDNAKNTVYLQMNSLKPEDTAVYYCNARYVFPYYWGQGTQVTVSS | high polyreactivity
7 | QVQLQESGGGLVHAGGILRLSCAASGTISFINMKGWYGQAPGRERELVASINFGANTHYADSVKGRFTIRRDNAKNTVYLQMNSLKPEDTAVSYCAARKVRFGVDYWGQGTQVTVSS | high polyreactivity
8 | QVQLVDSVGGLVQAGGSLRLSCAASGSIFNPYDMGWSRQAPGKERELVAAIDWSGGSTYYADSVKGRFTISRDNAKNTVYLQMNSLKPEDTAVYYCNARPDYSISLPGYPTLSEDDEYWGQGTQVTVSS | low polyreactivity
9 | QVQLVESGGGFVQAGGSLRLSCAASGSTFDGYAMGWYRQAPGKERELVAAITSSDGSTYYADSVKGRFTISRDNAKNTVYLQMNSLKPEDTAGYSCAAAPDWKDSLPPDMDYWGQGTQVTVSS | low polyreactivity
10 | QVQLVESGGGLVQAGGRLLLSCAASGFIFYSNAMGWYRQAPGKERELVAAISRSGGSTYYADSVKGRFTISRDNAMNTVFLQMNSLKPEDTAVYYCNADYVYRRYGYWGQGTQVNVSS | high polyreactivity
11 | QVQLVESGGGLVQAGGSLRLSCAASGITFRTYAMGWYRQAPGKERELVAAITRGDSTYYADSVKGRFTISRDNAKNSVYLQMNSLKPEETAVYYCAKESYIVNSRYYTGKMYYWGQGTQVTVSS | low polyreactivity
12 | QVQLVESGGGLVQAGGSLRLSSAASGSTFVQNAIGWYRQAPGKERELVAAISRTGGSTYSAHSVKGRFTIYRDNAKNTVYLEMNSLKPEDTAVYYFAKRPPHYSWPTFIEFGSWGLGTQVTVSS | high polyreactivity
13 | QVQLEESGGGLVQAGGSLRLTCAASGLIFHDYAMGWYRQATGTEMELVAAISWSDGTTYYADSVKGRFTISRDNAKITVYLQMNSLKPEDTAVYYCAAEEVSGWEYDFWGQGTQVTVSS | high polyreactivity
14 | QVQLEESGGGLVQAGGSLRLSCAASGITFRQYAMGWYRQAPGKERELVATISSGDDTYYADSVKGRFTISRDNAKNTVYLQMNSLKPEDTAVYYCAARYWTSIVRYRGDYWGQGTQVTVSS | high polyreactivity
15 | QVQLVESGGGLVQAGGSLRLSCAASGSIFVGYTMGWYRQAPGKETELVADITYNGGTTYYADSVKGRFTISRDNAKNTVYLQMNSLKPEETAVYYCAADYYYACFPVYYWGQGTQVTVSS | high polyreactivity
16 | QVQLVESGGGLVQAGGSLRLSCAASGFIFGKYAMGWYRQAHGKERELVAAITSDGRTYYADSVKGRFTISRDNAKNTVYLQMNSLKPEDTAVYYCAATRYGHRYYYRPYEYWGQGTQVTVSS | high polyreactivity
17 | QVQLVESGGGLVQAGGSLRLSCAASGISFYEYGMGWYRQAPGKERELVAAITFGGGSTYYADSVKGRFTISRDNAKNTVYLQMNSLKPEDTAVYDCAADRVYWGRVQGYYWGQGTQVTVSS | low polyreactivity
18 | QVQLVESGGGLVQAGGSLRLSCAASGRIFFDYAMGWYRQAPGKERELVADISYNGGSTNYADSVKGRFTISRDNAKNTVYLQMNSLKPEDTAVYYCNRAFVPVYDLDYYWGQGTQVTVSS | low polyreactivity
19 | QVQLVESGGGLVQAGGSLRLSCAASGSIFYLYAMGWYRQAPGKERELVAAISESGSTTYYADSVKGRFTISRDNAKNTVYLQMNSLKPEDTAVYYCARLGTYTVVTYDYWGQGTQVTVSS | low polyreactivity
20 | QVQLVESGGGLVQAGGSLRLSCAASGSTFAIYAMGWDRGAPGKEREVVAAISWRTGSTYYADSVKGRFTISRDNAKNTVYLQMNSLKPEDTAVYYCAAEFWFFAGWAYEYWGHGTQVTVSS | high polyreactivity
21 | QVQLVESGGGLVQAGGSLRLSCAASGIIFRYYAMGWYRQAPGKERELVATISWRGGSTYYADSVKGRFTISRDNAKNTVYLQMNSLKPEDTAVYYCAAAISYSARGGKGLGGYWGQGTQVTVSS | high polyreactivity
22 | QVQLVESGGGLVQAGGSLRLSCAASGRTSRFYAMGWYRQAPGKERELVARITTRGGSTYYADSVKGRFTISRDNAKNTVYLQRNSLKPEDTAVYYCNTAFWYSRSMDYWGQGTQVTVSS | high polyreactivity

Row | Sequence | polyreactivity (PSR sort gate)
23 | QVQLVESGGGIVQARGSLRLSCAASGSILSSYAMGWYTQAPGKERELVAAISKSGTRTYYADSVKGRFTISRDNAKNTVYLQMNSLKPEDTAVYYCAARYYSRTTAMDYWGQGTQVTVSS | high polyreactivity
24 | QVQLVESGGGLVQAGGSLRVSCAASGSIFYSYGMGWYRQAPVKERELVAAITSSGGGTYYADSVKGRFTISRDNAKNSVYLQMNSLKPEDTAVYYCAAHDRNYNYYPTFYYWGQGTQVSVSS | low polyreactivity
25 | QVQLVESRGGLVQARGSLRLSCAASGSTFVYYALGWYRTAPGTERELVAAITQRGGNTYYADSVKGRFTISRDNAKNTVYLQMNSLKPVDTAVYYCATKSYSQYFKFYYWGQGTQVTVSS | high polyreactivity
26 | QVQLVESGGGLVQAGGRLSLICAASGSIFPINAMGWYRQAPGKERELVADITSGGSTNYADSVKGRFTISRDNAKNTVYLQMNSLKPEDTAVYYCAADWRYWRWAFDYWGQGTQVTVSS | high polyreactivity
27 | QVQLVESRGGLVQAGGSLRLSCAASGFIFFQYAMGWYRQAPGTERELVAAISGSGVTTYYADSVKGRFTISRDNAKNTVYLQMNSLKPEDTAVYYCNAALRWKYDWGQGTQVTVSS | low polyreactivity
28 | QVQLVESGGGLVQAGGSLRLSCAASGFIFSYYTMGWYRQEPGTERELVADISWSGGSSYYADSVKGRFTISRDNAKNTVYLQMNSLKPEDTAVYYCNAEGWTAFLDQYDYWGQGTQVTVSS | high polyreactivity
29 | QVQLVESGGGLVQAGGSLRLSCAASGITFKRYTMGWYRQAPGKERELVADITWSGGSTYADSVKGRFTISRDNAKNTVYLQMNSLKPEDTAVYYCAAEWQTWYGVEYDYWGQGTQVTVSS | high polyreactivity
30 | QVQLVESGGGLVQAGGSLRLSCAPSGRTFVDYDMGWYRQAPGKERELVADINSGGSTYYADSVKGRFTISRDNAKNTVYLQMNSLKPEDTAVYYCAARYTFDRWKFGYWGQGTQVTVSS | high polyreactivity
31 | QGQLVESGGGLVQAGGSLRLSCAASGFTFVGNAMGWYRQAPGKERELVATITSGGNTKYADSVKGRFTISRDNAKYTVYLQKNSLKPEDTAVYYCAAAKYNYRRFNYWGQGTQVTVSS | low polyreactivity
32 | QVQLVESGGGLVQAGGSLRLSCAASGSIFFRYALAWYRQAPGKERELVASITSGGSTYYADSVKGRFTISRDNAKNTVYLQMNSLKPEDTAVYYCNALPYRYRRYDYWGQGTQVTVSS | low polyreactivity
33 | QVHLVESGGGLVQAGGSLRLSCAASGRTLGGNAMGWYRQAPGKERELDAAITNSASTYADSVKGRFTISRDNAKNTVYLQMNSLKPEDTAVYYCNAPDPSDQHGDYWGQGTQVTVSS | low polyreactivity
34 | QVQLVESGGGLVQEGGSLRLRWAASGFIFDTYAMGWYRQAPGKERELVAGISDGGSTYYADSVKGRFTISRDNAKNTVYLQLNSLKPEDTAVYYCAAQGEYGFTAYYPGVSWGQGTQVTLSS | low polyreactivity
35 | QVQLVESGGGLVQAGGSLRLSCAASGYIFFRNAMGWYRQAPGKEREFVAAIRFSGGNTYYADSVKGRFTISRDNAKNTVYLQMNSLKPEDTAFYYCAADKVRQGHYWTPMEYWGQGTQVTVSS | low polyreactivity
36 | QVQLVESGGGLVQAGGSLRLSCAASGFTFLRYAMGWYRQAPGKERELVAAITGSGGSTYYADSVKGRFTISRDNAQNTVYLQMNSLKPEDTAVYYCSIVSKFTGDYGYWGQGTQVTVSS | high polyreactivity
37 | QFQLVDSGGALVQAGGSLRLSCAASGFTFYPYAMGWYRQAPGKERELVAAISKRGGSTYYADSVKGRFTISRDHAKNTVYLQMNSLNPEDTAVYYCIAFFNGELYYWGQGTQVTVSS | high polyreactivity
38 | QVQLVESGGGLVQAGGSLRLSCAASGRIFTHNAMGWYRQAPGKERELVAAITWTGGSTYADSVKGRFTISRDNAKKTVYLQMNSLKPEDTAVYYCNARAHRYYLYDVQFGRGHSGGYWGQGTQVTVSS | low polyreactivity
39 | QVQLVESGRGLVQAGGSLRLSCAASGSTFSRYTMGWYRQAPGKERELVAAISYRGGSTYYADSVKGRFTISRDNAKNTVYLQMNSLKPEDTAVYYRAAEYRVEGSDYDYWGQGTQVTVSS | low polyreactivity
40 | QVQLVESGGGLVQAGGSLRLSCAASGRTISYAMGWYRQAPGKERELVAAIRYRGGSTYYADSVKGRFTISRDNAKNTVYLQMNSLKPEDTADYYCDAQDSYTPPILFRRGYLRYDYWGQGTQVTVSS | low polyreactivity
41 | QGQLEESGGGLVQAGGSLRLSCAASGSIFGENAMGWYRQAPGKDRELVAAISSAGSTKYADSVKGRFTISRDNAKNSVYFQMNSLKPEDTAVYYCAAGYYRTSYPYSYYYWGQGTQVTVSS | low polyreactivity
42 | QVQLVESGGGLVQAGGSLRLSCAASGITFRYYAMGWYRQAPGKERELVATISRGVRTNYADSVKGRFTISRDNAKNTVYLQMNSLKPEDTAVYYCNADYASARRYDYWGQGTQVTVSS | high polyreactivity
43 | QVQLVESGGGLVQAGGSLRLSCAASGRIFGLYAMGWYSQAPGKERELVAAISRGGGSTYYSDSVMGRFTISRDNAKNTVYLQMKSLKPEVTAVYYCATGLGYFSRLDYWGQGTQVTVSS | low polyreactivity
